Test results: patent US20250019440A1 (Zymeworks, published 2025)

Tests used:
PD-L1 on cells = PD-L1 on cells (UniProt Q9NZQ7 19-290, limits assumed); experiment: cell-based or functional assay
Human CD3 (recombinant) = Human CD3 (recombinant) (human); experiment: SPR, CD3 amine-coupled, variant as analyte, 1:1 model
Human PD-L1 [1] = target: T1, Human PD-L1 (human, UniProt Q9NZQ7 19-239); experiment: SPR, PD-L1 amine-coupled, variant as analyte, 1:1 model; third of three variants in the merged cell (G1 4-1 PD-1)
T1 construct: Amine-coupled to a CM5 chip for SPR; also called recombinant human PD-L1

Human PD-L1 [2] = target: T1, Human PD-L1; experiment: SPR, PD-L1 amine-coupled, variant as analyte
Human PD-L1 [3] = target: T1, Human PD-L1; experiment: SPR, PD-L1 amine-coupled, variant as analyte, 1:1 model
Human PD-L1 [4] = target: T1, Human PD-L1; experiment: as above; remark: listed apart in the source
Human PD-L2 = target: T2, Human PD-L2 (human, UniProt Q9BQ51 20-219); experiment: SPR, PD-L2 amine-coupled, variant as analyte, 1:1 model
T2 construct: Amine-coupled to a CM5 chip for SPR; also called recombinant PD-L2
T2 sequence (looked up): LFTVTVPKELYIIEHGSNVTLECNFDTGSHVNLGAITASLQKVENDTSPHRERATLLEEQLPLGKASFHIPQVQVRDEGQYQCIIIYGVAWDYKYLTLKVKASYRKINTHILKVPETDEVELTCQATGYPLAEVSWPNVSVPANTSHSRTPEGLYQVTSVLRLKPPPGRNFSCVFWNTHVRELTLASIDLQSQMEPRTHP

Chain of Human CD3 (recombinant) (human) (chain, as listed by the source): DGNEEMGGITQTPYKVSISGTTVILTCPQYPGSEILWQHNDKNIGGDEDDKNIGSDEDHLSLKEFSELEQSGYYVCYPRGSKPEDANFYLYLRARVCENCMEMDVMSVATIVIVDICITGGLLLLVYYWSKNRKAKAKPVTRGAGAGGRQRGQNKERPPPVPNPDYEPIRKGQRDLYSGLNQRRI
T1 sequence (Q9NZQ7 19-239 limits assumed): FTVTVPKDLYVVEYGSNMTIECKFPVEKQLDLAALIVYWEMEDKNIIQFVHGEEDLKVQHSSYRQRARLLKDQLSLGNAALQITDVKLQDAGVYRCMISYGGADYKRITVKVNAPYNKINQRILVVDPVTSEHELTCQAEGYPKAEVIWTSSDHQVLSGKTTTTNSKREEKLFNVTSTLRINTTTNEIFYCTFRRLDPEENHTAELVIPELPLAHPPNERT
Chain of PD-L1 on cells (Q9NZQ7 19-290 limits assumed): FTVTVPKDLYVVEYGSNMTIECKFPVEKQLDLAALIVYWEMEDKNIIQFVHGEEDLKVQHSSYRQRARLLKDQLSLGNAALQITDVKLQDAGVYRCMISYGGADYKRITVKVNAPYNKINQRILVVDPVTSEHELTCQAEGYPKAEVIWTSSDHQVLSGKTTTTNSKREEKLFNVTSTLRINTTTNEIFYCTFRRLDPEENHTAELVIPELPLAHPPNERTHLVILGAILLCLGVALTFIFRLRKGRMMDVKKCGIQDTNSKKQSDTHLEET

| Binder | EC50 (read off the curve); hybrid PD-1/PD-L1 reporter gene assay, delta RLU, PD-1+ Jurkat T cells with SNU-620 cells, top left graph; composite signal of CD3 engagement and PD-1:PD-L1 blockade (PD-L1 on cells) | Kd (Human CD3 (recombinant)) | Kd (Human PD-L1 [1]) | binding result (Human PD-L1 [2]) | Kd (Human PD-L1 [3]) | Kd (Human PD-L1 [4]) | Kd (Human PD-L2) |
| --- | --- | --- | --- | --- | --- | --- | --- |
| v38739 (other) heavy 1: EVQLVESGGGLVQPGGSLRLSCAASGVTFNYYGMSWIRQAPGKGLEWVASITSSGGRIYYPDSVKGRFTISRENTQKTLYLQMNSLRAEDTAVYYCTLDGRDGWVAYWGQGTLVTVSSASTKGPSVFPLAPSSKSTSGGTAALGCLVKDYFPEPVTVSWNSGALTSGVHTFPAVLQSSGLYSLSSVVTVPSSSLGTQTYICNVNHKPSNTKVDKKVEPKSCDKTHTCPPCPAPEAAGGPSVFLFPPKPKDTLMISRTPEVTCVVVSVSHEDPEVKFNWYVDGVEVHNAKTKPREEQYNSTYRVVSVLTVLHQDWLNGKEYKCKVSNKALPAPIEKTISKAKGQPREPQVYVYPPSRDELTKNQVSLTCLVKGFYPSDIAVEWESNGQPENNYKTTPPVLDSDGSFALVSKLTVDKSRWQQGNVFSCSVMHEALHNHYTQKSLSLSPGGGGGSGDRPWNPPTFSPALLVVTEGDNATFTCSFSNTSESFVLNWYRMSPSNQTDKLAAFPEDRSQPGQDARFRVTQLPNGRDFHMSVVRARRNDSGTYLCGAISLAPKLQIKESLRAELRVTE light: NFMLTQPHSVSESPGKTVTISCKRNTGNIGSNYVNWYQQHEGSSPTTIIYRNDKRPDGVSDRFSGSIDRSSKSASLTISNLKTEDEADYFCQSYSSGFIFGGGTKLTVLGQPKAAPSVTLFPPSSEELQANKATLVCLISDFYPGAVTVAWKADSSPVKAGVETTTPSKQSNNKYAASSYLSLTPEQWKSHRSYSCQVTHEGSTVEKTVAPTECS heavy 2: QVQLVESGGGLVQPGGSLRLSCSVSGIDLSSNPMIWVRQAPGKGLQYIGIIDTDGSTYYADWAKGRFTISKDSTTVYLQINSPRAEDTAVYYCARRLHGSSNGYYDDLWGQGTLVTVSSGGGGSGGGGSGGGGSGGGGSDGQMTQSPSSVSASVGDRVTITCQASQSIYSYLSWYQQKPGQRPKLLIYKASTLASGVPSRFSGSGSGTDFTLTISSVQPEDFATYYCQQGYTVTNVDKNTFGGGTKVEIKAAEPKSSDKTHTCPPCPAPEAAGGPSVFLFPPKPKDTLMISRTPEVTCVVVSVSHEDPEVKFNWYVDGVEVHNAKTKPREEQYNSTYRVVSVLTVLHQDWLNGKEYKCKVSNKALPAPIEKTISKAKGQPREPQVYVLPPSRDELTKNQVSLLCLVKGFYPSDIAVEWESNGQPENNYLTWPPVLDSDGSFFLYSKLTVDKSRWQQGNVFSCSVMHEALHNHYTQKSLSLSPG | – | 39 nM | – | – | 310 nM | 110 nM | 230 nM |
| v38426 (other, CD3 Fab with C-term Cldn18.2 scFv x Cldn18.2 scFv Fc with attenuated (KO) PD-1 attached to CD3 LC (N-term)) heavy 1: EVQLVESGGGLVQPGGSLRLSCAASGVTFNYYGMSWIRQAPGKGLEWVASITSSGGRIYYPDSVKGRFTISRENTQKTLYLQMNSLRAEDTAVYYCTLDGRDGWVAYWGQGTLVTVSSASTKGPSVFPLAPSSKSTSGGTAALGCLVKDYFPEPVTVSWNSGALTSGVHTFPAVLQSSGLYSLSSVVTVPSSSLGTQTYICNVNHKPSNTKVDKKVEPKSCDKTHTCPPCPAPEAAGGPSVFLFPPKPKDTLMISRTPEVTCVVVSVSHEDPEVKFNWYVDGVEVHNAKTKPREEQYNSTYRVVSVLTVLHQDWLNGKEYKCKVSNKALPAPIEKTISKAKGQPREPQVYVYPPSRDELTKNQVSLTCLVKGFYPSDIAVEWESNGQPENNYKTTPPVLDSDGSFALVSKLTVDKSRWQQGNVFSCSVMHEALHNHYTQKSLSLSPGGGGGSGQVQLVESGGGLVQPGGSLRLSCSVSGIDLSSNPMIWVRQAPGKGLQYIGIIDTDGSTYYADWAKGRFTISKDSTTVYLQINSPRAEDTAVYYCARRLHGSSNGYYDDLWGQGTLVTVSSGGGGSGGGGSGGGGSGGGGSDGQMTQSPSSVSASVGDRVTITCQASQSIYSYLSWYQQKPGQRPKLLIYKASTLASGVPSRFSGSGSGTDFTLTISSVQPEDFATYYCQQGYTVTNVDKNTFGGGTKVEIK light: NPPTFSPALLVVTEGDNATFTCSFSNTSESFVLNWYRMSPSNQTDALAAFPEDRSQPGQDARFRVTQLPNGRDFHMSVVRARRNDSGTYLCGAASLAPKAQIKESLRAELRVTEGGGGSGNFMLTQPHSVSESPGKTVTISCKRNTGNIGSNYVNWYQQHEGSSPTTIIYRNDKRPDGVSDRFSGSIDRSSKSASLTISNLKTEDEADYFCQSYSSGFIFGGGTKLTVLGQPKAAPSVTLFPPSSEELQANKATLVCLISDFYPGAVTVAWKADSSPVKAGVETTTPSKQSNNKYAASSYLSLTPEQWKSHRSYSCQVTHEGSTVEKTVAPTECS heavy 2: QVQLVESGGGLVQPGGSLRLSCSVSGIDLSSNPMIWVRQAPGKGLQYIGIIDTDGSTYYADWAKGRFTISKDSTTVYLQINSPRAEDTAVYYCARRLHGSSNGYYDDLWGQGTLVTVSSGGGGSGGGGSGGGGSGGGGSDGQMTQSPSSVSASVGDRVTITCQASQSIYSYLSWYQQKPGQRPKLLIYKASTLASGVPSRFSGSGSGTDFTLTISSVQPEDFATYYCQQGYTVTNVDKNTFGGGTKVEIKAAEPKSSDKTHTCPPCPAPEAAGGPSVFLFPPKPKDTLMISRTPEVTCVVVSVSHEDPEVKFNWYVDGVEVHNAKTKPREEQYNSTYRVVSVLTVLHQDWLNGKEYKCKVSNKALPAPIEKTISKAKGQPREPQVYVLPPSRDELTKNQVSLLCLVKGFYPSDIAVEWESNGQPENNYLTWPPVLDSDGSFFLYSKLTVDKSRWQQGNVFSCSVMHEALHNHYTQKSLSLSPG | – | 77 nM | – | no binding | – | – | – |

The remaining binders from weak to strong by Kd (Human CD3 (recombinant)), led by results:

| EC50 (read off the curve); hybrid PD-1/PD-L1 reporter gene assay, delta RLU, PD-1+ Jurkat T cells with SNU-620 cells, top left graph; composite signal of CD3 engagement and PD-1:PD-L1 blockade (PD-L1 on cells) | Kd (Human CD3 (recombinant)) | Kd (Human PD-L1 [1]) | binding result (Human PD-L1 [2]) | Kd (Human PD-L1 [3]) | Kd (Human PD-L1 [4]) | Kd (Human PD-L2) | Binder |
| --- | --- | --- | --- | --- | --- | --- | --- |
| – | 37 nM | – | no binding | – | – | – | v38424 (other, CD3 Fab x Cldn18.2 scFv Fc, attenuated (KO) PD-1 attached to HC1 (C-term)) heavy 1: EVQLVESGGGLVQPGGSLRLSCAASGVTFNYYGMSWIRQAPGKGLEWVASITSSGGRIYYPDSVKGRFTISRENTQKTLYLQMNSLRAEDTAVYYCTLDGRDGWVAYWGQGTLVTVSSASTKGPSVFPLAPSSKSTSGGTAALGCLVKDYFPEPVTVSWNSGALTSGVHTFPAVLQSSGLYSLSSVVTVPSSSLGTQTYICNVNHKPSNTKVDKKVEPKSCDKTHTCPPCPAPEAAGGPSVFLFPPKPKDTLMISRTPEVTCVVVSVSHEDPEVKFNWYVDGVEVHNAKTKPREEQYNSTYRVVSVLTVLHQDWLNGKEYKCKVSNKALPAPIEKTISKAKGQPREPQVYVYPPSRDELTKNQVSLTCLVKGFYPSDIAVEWESNGQPENNYKTTPPVLDSDGSFALVSKLTVDKSRWQQGNVFSCSVMHEALHNHYTQKSLSLSPGGGGGSGDRPWNPPTFSPALLVVTEGDNATFTCSFSNTSESFVLNWYRMSPSNQTDALAAFPEDRSQPGQDARFRVTQLPNGRDFHMSVVRARRNDSGTYLCGAASLAPKAQIKESLRAELRVTE light: NFMLTQPHSVSESPGKTVTISCKRNTGNIGSNYVNWYQQHEGSSPTTIIYRNDKRPDGVSDRFSGSIDRSSKSASLTISNLKTEDEADYFCQSYSSGFIFGGGTKLTVLGQPKAAPSVTLFPPSSEELQANKATLVCLISDFYPGAVTVAWKADSSPVKAGVETTTPSKQSNNKYAASSYLSLTPEQWKSHRSYSCQVTHEGSTVEKTVAPTECS heavy 2: QVQLVESGGGLVQPGGSLRLSCSVSGIDLSSNPMIWVRQAPGKGLQYIGIIDTDGSTYYADWAKGRFTISKDSTTVYLQINSPRAEDTAVYYCARRLHGSSNGYYDDLWGQGTLVTVSSGGGGSGGGGSGGGGSGGGGSDGQMTQSPSSVSASVGDRVTITCQASQSIYSYLSWYQQKPGQRPKLLIYKASTLASGVPSRFSGSGSGTDFTLTISSVQPEDFATYYCQQGYTVTNVDKNTFGGGTKVEIKAAEPKSSDKTHTCPPCPAPEAAGGPSVFLFPPKPKDTLMISRTPEVTCVVVSVSHEDPEVKFNWYVDGVEVHNAKTKPREEQYNSTYRVVSVLTVLHQDWLNGKEYKCKVSNKALPAPIEKTISKAKGQPREPQVYVLPPSRDELTKNQVSLLCLVKGFYPSDIAVEWESNGQPENNYLTWPPVLDSDGSFFLYSKLTVDKSRWQQGNVFSCSVMHEALHNHYTQKSLSLSPG |
| ~0.5 nM | 3.5 nM | 280 nM | – | – | – | – | v38737 (other) heavy 1: EVQLVESGGGLVQPGGSLRLSCAASGVTFNYYGMSWIRQAPGKGLEWVASITSSGGRIYYPDSVKGRFTISRENTQKTLYLQMNSLRAEDTAVYYCTLDGRDGWVAYWGQGTLVTVSSASTKGPSVFPLAPSSKSTSGGTAALGCLVKDYFPEPVTVSWNSGALTSGVHTFPAVLQSSGLYSLSSVVTVPSSSLGTQTYICNVNHKPSNTKVDKKVEPKSCDKTHTCPPCPAPEAAGGPSVFLFPPKPKDTLMISRTPEVTCVVVSVSHEDPEVKFNWYVDGVEVHNAKTKPREEQYNSTYRVVSVLTVLHQDWLNGKEYKCKVSNKALPAPIEKTISKAKGQPREPQVYVYPPSRDELTKNQVSLTCLVKGFYPSDIAVEWESNGQPENNYKTTPPVLDSDGSFALVSKLTVDKSRWQQGNVFSCSVMHEALHNHYTQKSLSLSPGGGGGSGDRPWNPPTFSPALLVVTEGDNATFTCSFSNTSESFRLVWHRESPGYETDTLASFPEDRSTPLPDARFRVTQLPNGRDFHMSVVRARRNDSGTYVCGAIAFHPVIQIKESLRAELRVTE light: NFMLTQPHSVSESPGKTVTISCKRNTGNIGSNYVNWYQQHEGSSPTTIIYRNDKRPDGVSDRFSGSIDRSSKSASLTISNLKTEDEADYFCQSYSSGFIFGGGTKLTVLGQPKAAPSVTLFPPSSEELQANKATLVCLISDFYPGAVTVAWKADSSPVKAGVETTTPSKQSNNKYAASSYLSLTPEQWKSHRSYSCQVTHEGSTVEKTVAPTECS heavy 2: QVQLVESGGGLVQPGGSLRLSCSVSGIDLSSNPMIWVRQAPGKGLQYIGIIDTDGSTYYADWAKGRFTISKDSTTVYLQINSPRAEDTAVYYCARRLHGSSNGYYDDLWGQGTLVTVSSGGGGSGGGGSGGGGSGGGGSDGQMTQSPSSVSASVGDRVTITCQASQSIYSYLSWYQQKPGQRPKLLIYKASTLASGVPSRFSGSGSGTDFTLTISSVQPEDFATYYCQQGYTVTNVDKNTFGGGTKVEIKAAEPKSSDKTHTCPPCPAPEAAGGPSVFLFPPKPKDTLMISRTPEVTCVVVSVSHEDPEVKFNWYVDGVEVHNAKTKPREEQYNSTYRVVSVLTVLHQDWLNGKEYKCKVSNKALPAPIEKTISKAKGQPREPQVYVLPPSRDELTKNQVSLLCLVKGFYPSDIAVEWESNGQPENNYLTWPPVLDSDGSFFLYSKLTVDKSRWQQGNVFSCSVMHEALHNHYTQKSLSLSPG |
